Assay results: patent US20240392013A1, “IL1RAP ANTIBODIES AND USES THEREOF” (STELEXIS THERAPEUTICS, LLC, priority 2021, published 2024)

Experiments:
[1] = system: IL1-induced downstream signaling (phospho-ERK, NFκB) in AML patient samples; assay: IL1 signaling in AML patient samples, Western blot; format: cell-based, human; settings: antibody 20 μg/ml, IL1β 100 ng/ml
Method: (§1) AML patient samples or cancer cells (AML, chronic myelogenous leukemia (CML), pancreatic, head and neck squamous cell carcinoma (HNSCC), bladder, non-small-cell lung carcinoma (NSCLC), colorectal and triple-negative breast cancer (TNBC)) were seeded in 6-well plates (5×10^5 cells/well) and incubated overnight at 37° C./5% CO2 in humified incubator. In experiments conducted in cancer cell lines, cells were washed 2× with PBS and serum-starved for 3 hours. Following, cells were treated with IL1RAP antibodies at concentration of 20 μg/ml and incubated for 1 h at 37° C./5% CO2 in humidified incubator. After 1 h, cells were treated with IL1β (Invivogen, cat: rcyec-hil1b), IL33 (Adipogen, cat: AG-40B-0160-C010) or IL36 cytokines (R@D, cat: 6836IL) at 100 ng/ml and incubated for 15 more minutes. Cells were harvested on ice after 1× wash with cold PBS and were centrifuged for 5 minutes at 5000 rpm at 4° C. Cells were then lysed with NP-40 buffer for 5 minutes on ice and centrifuged for 15 minutes at 15000 rpm at 4° C. Supernatants were collected and protein concentrations were determined by BCA (Thermofisher, Cat #PI23225). […] After 3× washes, ECL was applied (Thermofisher, Cat #32106) and proteins were detected after exposure to autoradioraphic films (Worldwide medical products, Cat #41101001) and protein intensity was quantitated using ImageJ software.

[2] = system: IL36γ-induced NFκB activity; assay: HEKBlue-IL36 cell-based reporter assay; settings: HEKBlue-IL36, FIG. 22
Method: Inhibition by STLX2012 was measured by the HEKBlue-IL36 cell-based reporter assay. The HEK-Blue IL36 (Invivogen, Cat #hil36r-hkb) cell line was used to monitor NFκB activity upon stimulation with IL36γ cytokine. In this cell line, the secreted embryonic alkaline phosphatase reporter gene (SEAP) is inducibly expressed under the control of IFN-β minimal promoter fused to NFκB/AP-1. Specificity to IL36γ cytokine was achieved by blockage of TNF-α and IL1 response. Cells are maintained in the presence of zeocin (100 μg/ml) and blasticidin (10 μg/ml).

[3] = system: IL1-induced downstream signaling (phospho-ERK, AKT, p38, NFκB) in A6L, CAL33, 5637, A549, Colo205, HCC70 cells; assay: IL1 signaling in solid tumor cancer cells, Western blot; format: cell-based; settings: antibody 20 μg/ml
Method: as §1

[4] = system: IL33-induced downstream signaling (phospho-ERK, p38, NFκB) in AML patient samples; assay: IL33 signaling in AML patient samples, Western blot; format: cell-based, human; settings: antibody 20 μg/ml, IL33 100 ng/ml
Method: as §1

[5] = system: AML patient-derived leukemic cells; assay: Jurkat-Lucia NFAT-CD16 ADCC reporter assay against AML patient-derived leukemic cells; format: cell-based, human
Text: Methods: ADCC activity is mediated through binding of NK cell's CD16 receptors to the Fc region of antibodies. A Jurkat-Lucia NFAT-CD16 ADCC Reporter cell assay (Invivogen, Cat #jktl-nfat-cd16; https://www.invivogen.com/jurkat-lucia-nfat-adcc-adcp-cells) was used to analyze IL1RAP mAb STLX2012 for ADCC activity. Briefly, the Jurkat cell line was engineered to express the cell surface Fc receptor CD16A (FcγRIIIA) and the Lucia luciferase reporter gene. ADCC is triggered by CD16A cross-linking upon antigen-bound antibody binding at the surface of immune effector cells. Cells are maintained in the presence of zeocin (100 μg/ml) and blasticidin (10 μg/ml).

[6] = system: IL1-induced downstream signaling (phospho-p38, NFκB) in THP-1 cells; assay: IL1 signaling in AML (THP-1) cells, Western blot; format: cell-based, human; settings: antibody 20 μg/ml, IL1β 100 ng/ml
Method: as §1

CML cells (K562) = assay: Proliferation of CML cells (K562), Cell-Titer Glo; format: cell-based, human; settings: 333 nM, 3 days
Method: (§2) AML patient samples or cancer cells (AML and CML) were plated at density of 3×10^3 cells/well in two 96-well plates and incubated overnight at 37° C./5% CO2 in humidified incubator. The next day (Day 1) cells in one of the plates were treated with IL1RAP antibody at 10-150 μg/ml at a total volume of 100 μl. Plates were kept at 37° C./5% CO2 in humified for 3-6 days. Cells treated with vehicle or IgG served as controls and every treatment was conducted in triplicates. The second plate was treated on Day 1 with media and cell proliferation was measured on the same day by CellTiter-Glo (Promega, Cat #G7572). In more details, wells were mixed with equal volume (100 μl) of CellTiter-Glo and agitated for 2 minutes followed by 10 minutes incubation at room temperature in the dark. Luminescence signal was measured in Cytation™ (Biotek) plate reader. After 3-6 days, cell proliferation in the […] plates was measured separately in the same way.

AML cells (THP-1) = assay: Proliferation of AML cells (THP-1), Cell-Titer Glo; format: cell-based, human; settings: 66 nM, 4 days
Method: as §2

healthy control samples = assay: Clonogenic capacity of healthy control samples; format: cell-based, human; settings: 333 nM, two weeks
Method: AML patient samples or healthy control samples (4000 cells) were washed and resuspended in 30 μl Iscove's Modified Dulbecco's Medium (IMDM) media supplemented with 2% FBS. Cells […] were mixed with 3 ml methylcellulose (MthoCult H4034 Optimum) supplemented with pen/strep or primocin (100 μg/ml) and IL1RAP antibodies (333 nM) and 1 ml were seeded in 35 mm dishes in duplicates. The dishes were incubated at 37° C./5% CO2 in humidified incubator for 14-16 days. Colonies were counted using inverted microscope.

B1: 74804_12A21B: anti-IL1RAP mAb; VH SEQ ID NO:6, VL SEQ ID NO:23, κ light chain (antibody, V domains shown)
VH: QVQLLQSGAEVKKPGSSVKVSCKASGGTFSIYAIDWVRQAPGQGLEWMGGIIPIFGTANSAQKFQGRVTITADKSTSTAYMELSSLRSEDTAVYYCARNGATSDAFDMWGQGTMVTVSS
VL: EIVLTQSPGTLSLSPGERATLSCRASLSVSSNYLAWFQQRPGQAPRLLIHGVSRRATGIPDRFSGSGSGTDFTLTISRLEPEDFAVYYCQQYGSSPLTFGGGTKVEIK
modifications: 74804_12A21B VH and 74804_29D13A VH; 74804_12A21B VL
- Inhibition of IL1 signaling (phosphorylation of ERK and NFκB) [1]: inhibited IL1 signaling in AML patient samples
- Inhibition of IL36γ-induced NFκB activity [2]: inhibition of the IL36γ-induced NFκB activity in a dose-dependent manner
- Inhibition of IL1 signaling (phosphorylation of ERK, AKT, p38 and NFκB) [3]: inhibited IL1 signaling in solid tumor cancer cells
- Inhibition of IL33 signaling (phosphorylation of ERK, p38 and NFκB) [4]: inhibited IL33 signaling in AML patient samples
- ADCC activity (reporter) [5]: showed ADCC activity
- Inhibition of IL1 signaling (phosphorylation of p38 and NFκB) [6]: inhibited IL1 signaling in these AML (THP-1) cells
- Inhibition of cell proliferation (CML cells (K562)): inhibited cell proliferation
- Inhibition of cell proliferation (AML cells (THP-1)): inhibited cell proliferation
- Effect on clonogenic capacity of healthy control samples (healthy control samples): did not affect the clonogenic capacity of healthy control samples
